These results are taken from patent US20200407449A1 (PHARMABCINE, published 2020).

Assay [1] concerns the target T1, hVISTA-Fc (R&D systems. Cat. No. 7126-B7) (human, UniProt Q9H7M9 33-194).
T1 construct: Bought antigen; also called human VISTA-Fc; VISTA-FC Human
T1 sequence: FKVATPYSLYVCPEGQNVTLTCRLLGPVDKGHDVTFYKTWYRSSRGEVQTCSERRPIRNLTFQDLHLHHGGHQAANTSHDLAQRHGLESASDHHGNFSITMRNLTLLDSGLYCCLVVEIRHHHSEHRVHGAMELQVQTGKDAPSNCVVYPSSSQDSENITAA
Put plainly: Octet (BLI), antibody immobilised on biosensor, antigen in solution. As to the method:
(§1) The binding ability of the screened antibody to the antigen was measured using an Octet (ForteBio). For this purpose, the antibody was immobilized on a biosensor, various concentrations of antigen were added to a 96-well plate, and then the binding ability was measured.
In general terms: Biolayer interferometry detects binding as a change in optical thickness at a sensor tip.

The target in assay [2] is T2, mouse VISTA-Fc (mouse, UniProt Q9D659 33-191).
T2 construct: extracellular domain; also called mVISTA-Fc; VISTA-FC Mouse; not shown: Fc portion
T2 sequence (looked up): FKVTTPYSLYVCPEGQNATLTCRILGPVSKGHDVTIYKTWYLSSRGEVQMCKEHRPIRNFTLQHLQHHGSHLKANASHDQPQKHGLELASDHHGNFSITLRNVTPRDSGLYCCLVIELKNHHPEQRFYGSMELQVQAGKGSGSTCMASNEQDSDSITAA
Described as above. How it is done:
as §1

In assay [3] the target is T1, hVISTA-Fc (R&D systems. Cat. No. …). Kind of assay: monoclonal scFv phage ELISA, plate coated with 1 ug/ml VISTA-Fc, anti-M13-HRP. How it is done:
(§2) After the panning process was completed, the final round cell stock was diluted to form 200 to 500 colonies, spread on a CM agar plate, and then incubated overnight at 37° C. The next day, when the colonies grew, 200 μl of 2xYT medium (CM 34 μg/ml+1% glucose) was plated onto a 96-well deep plate, the colony was inserted into each well one by one and the plate was then incubated overnight at 37° C. and 3,000 rpm. The next day, 200 μl of 2×YT medium (CM 34 μg/ml+1% glucose) was plated onto a new 96-well dip plate, and […] of cells grown the day before were injected into each well and grown at 37° C. and 3,000 rpm for 1 hour and 10 minutes. The remaining cells were stored at −70° C. in 100 pμl of 50% glycerol. When the cells grew, 1 μl of a helper phage was mixed with 19 μl of 2×YT medium, and 20 μl of the resulting mixture was injected into each well and incubated for 30 minutes at 37° C. After incubation, centrifugation was performed at 3,000 rpm for 10 minutes. The supernatant was discarded and 200 μl of 2×YT medium (CM 34 μg/ml+Kan. 70 μg/ml+1 mM IPTG+5 mM MgCl₂) was added to the residue, followed by incubation in MegaGrow at 30° C. and 3,000 rpm overnight.
(§3) 1 μg/ml of Ag (hVISTA-Fc, mVISTA-Fc) was plated at 100 μl/well onto a 96-well immunoplate and then incubated overnight at 4° C. The next day, the cells grown the day before were centrifuged at 3,000 rpm for 10 minutes and stored at 4° C. The plated Ag was washed 3 times with 0.05% PBST, and then 200 μl of 2% BSA blocking buffer was added thereto, followed by incubation at 25° C. for 2 hours. After blocking was completed, the result was washed 3 times with 0.05% PBST. […] After phage binding was completed, the reaction product was washed three times with 0.05% PBST, 100 μl of HRP-conjugated mouse anti-M13 antibody (1:3000, #GE 27-9421-01) was added thereto, and reaction was allowed to proceed at 25° C. for 1 hour. After the reaction was completed, the resulting product was washed 3 times with 0.05% PBST, 100 μl of TMB (#BD TMB substrate reagent set 555214) was added thereto, color was developed for 3 to 5 minutes, 50 μl of a stop solution was added thereto, and then an assay was performed using an ELISA reader.
In general terms: ELISA stands for enzyme-linked immunosorbent assay.

The target of assay [4] is T2, mouse VISTA-Fc. Described as above. As to the method: as §2, §3
In assay [5] the target is T2, mouse VISTA-Fc. Put plainly: ELISA, plate coated with 1 ug/ml mouse VISTA-Fc, antibody at 1 ug/ml, anti-human IgG (kappa)-peroxidase. As to the method: ELISA assay: 1 μg/ml of Ag (human VISTA-Fc or mouse VISTA-Fc) was plated at 100 μl/well onto a 96-well plate and incubated at 4° C. overnight. The next day, the plated Ag was washed 3 times with 0.05% PBST and 200 μl of 2% BSA blocking buffer was added thereto, followed by incubation at 25° C. for 2 hours. After blocking was completed, the resulting product was washed 3 times with 0.05% PBST. 1 μg/ml of each antibody was injected at 100 μl/well and incubated at 25° C. for 1 hour. After incubation was completed, the resulting product was washed 3 times with 0.05% PBST and 100 μl of goat anti-human IgG (kappa)-conjugated peroxidase (1:2000, Bethyl Lab #A80-115P) was added thereto, followed by incubation at 25° C. for […]. After incubation, the resulting product was washed 3 times with 0.05% PBST, 100 μl of TMB (BD TMB substrate reagent set #555214) was added, color was developed for 3 to 5 minutes, 50 μl of a stop solution was added thereto, and then an assay was performed using an ELISA reader.

Assay [6] has as its target T1, hVISTA-Fc (R&D systems. Cat. No. …). Put plainly: dissociation rate constant of scFv in the screening of optimised clones; antigen not named.

As usually defined, the Kd is the concentration at which binding is half-saturated. A low value points to tighter binding. Broadly, the koff is a measure of how fast the partners let go of each other. Higher therefore signals a short-lived complex. As a reminder, the kon is the rate constant with which the complex forms. Read a low kon as slower complex formation.

B1: anti-VISTA antibody 2C12 (IgG form) (antibody, V domains shown)
VH: QVQLVESGAEVKKPGASVKVSCKASGYIFTDYYMHWVRQAPGQGLEWMGVINPYDGRTSFAQKFQGRLTVTRDTSTSTAYMDLSGLRSEDTAVYYCAKQMGIWDYDAFDIWGQGTMVTVSS
VL: QFVLTQPSSVSGAPGQRVIISCTGSSSNIGAGYDVHWYQQLPGTAPKVLIYGNSDRPSGVPDRFSASKSATSASLAITGLQAEDEADYYCVAWDDSLKAYVFGTGTKVTVLG
notes: also called #2C12(H); #2C12(M)
In assay [1], B1 displayed an equilibrium dissociation constant (Kd) of 1.02 nM, a koff of 8.48e-05 s⁻¹ and a kon of 83400 M⁻¹ s⁻¹. Further, in the assay with mouse VISTA-Fc [2], the affinity, expressed as Kd, was 14 nM; the koff was 0.00078 s⁻¹; the kon stood at 55700 M⁻¹ s⁻¹.

B2: 2C12 monoclonal scFv phage (scFv, V domains shown)
VH: QVQLVESGAEVKKPGASVKVSCKASGYIFTDYYMHWVRQAPGQGLEWMGVINPYDGRTSFAQKFQGRLTVTRDTSTSTAYMDLSGLRSEDTAVYYCAKQMGIWDYDAFDIWGQGTMVTVSS
VL: QFVLTQPSSVSGAPGQRVIISCTGSSSNIGAGYDVHWYQQLPGTAPKVLIYGNSDRPSGVPDRFSASKSATSASLAITGLQAEDEADYYCVAWDDSLKAYVFGTGTKVTVLG
For the molecule B2, the OD in assay [3] turned out to be 2.11 OD; in the assay with mouse VISTA-Fc [4], 2.03 OD.

B3: anti-VISTA antibody 3C5 (IgG form) (antibody, V domains shown)
VH: QVQLVQSGAEVKKPGASVKLSCKASGYTFSSYWMHWVRQAPGQRLEWMGEINPGNGHTNYNEKFKSRVTITVDKSASTAYMELSSLRSEDTAVYYCAKDIAYYDFWSGDAFDLWGQGTMVTVSS
VL: SYELTQPLSVSVSPGQTASITCSGDKLGNKYASWYQQKPGQSPVLVIYQDNKRPSGIPERFSGSNSGNTATLTISGTQATDEADYYCQTWDRSTGVFGTGTKVTVLG
In assay [1], B3 showed a Kd of 13.9 nM, a koff of 0.00367 s⁻¹ and an on-rate (kon) of 264000 M⁻¹ s⁻¹. For the same molecule, the binding result with mouse VISTA-Fc [5] is “no binding (tested: 1 ug/ml)”.

B4: 3C5 monoclonal scFv phage (scFv, V domains shown)
VH: QVQLVQSGAEVKKPGASVKLSCKASGYTFSSYWMHWVRQAPGQRLEWMGEINPGNGHTNYNEKFKSRVTITVDKSASTAYMELSSLRSEDTAVYYCAKDIAYYDFWSGDAFDLWGQGTMVTVSS
VL: SYELTQPLSVSVSPGQTASITCSGDKLGNKYASWYQQKPGQSPVLVIYQDNKRPSGIPERFSGSNSGNTATLTISGTQATDEADYYCQTWDRSTGVFGTGTKVTVLG
In assay [3], B4 had an OD of 2.2 OD.

B5: 1B8 monoclonal scFv phage (scFv, V domains shown)
VH: QMQLVQSGAEVKKPGSSVKVSCKASGGSSSNYAISWVRQAPGQGLEWMGGIIPIFGTTSYAQKFQGRVTITADGSMSTAYMELSSLRSEDTAVYYCAKGAIEPWPFYFDNWGQGTLVTVSS
VL: QLVLTQPRSVSGSPGQSVTISCTGTNSDVGAYNYLSWYQQLPGRAPKVIIYDVNKRPSGVPDRFSGSRSGKTASLTISGLQAEDEADYYCAAWDDSLNGLVFGGGTKLTVLG
notes: also called IB8; Anti VISTA.3.0 (1B8)
Turning to B5, the OD in assay [3] was found to be 2.13 OD. For the same molecule, in assay [6], the off-rate (koff) is 0.000732 s⁻¹.

B6: anti-VISTA antibody 1A12 (IgG form) (antibody, V domains shown)
VH: QMQLVESGGGLVEPGRSLRLSCTTSGFSFHDYTMYWVRQVPGKGLEWVSLISWDGTITFYADPVRGRFTISRDNSKNSLYLQMNSLRAEDTAVYYCAKEDRYDYYSGAFDIWGQGTVVTVSS
VL: QSALTQPRSVSGSPGQSVTISCTGTSSDVGGYDYVSWYQQHPGKAPKLILNDVNKRPSGVPDRFSGSKSGNTASLTISGLQPDDEADYYCSSFAGSNTLRVFGGGTKLTVLG
In assay [1], B6 registered a Kd of 0.546 nM, a koff of 2.74e-05 s⁻¹ and a kon of 50200 M⁻¹ s⁻¹. Further, the binding result with mouse VISTA-Fc [5] was “no binding (tested: 1 ug/ml)”.

B7: 1A12 monoclonal scFv phage (scFv, V domains shown)
VH: QMQLVESGGGLVEPGRSLRLSCTTSGFSFHDYTMYWVRQVPGKGLEWVSLISWDGTITFYADPVRGRFTISRDNSKNSLYLQMNSLRAEDTAVYYCAKEDRYDYYSGAFDIWGQGTVVTVSS
VL: QSALTQPRSVSGSPGQSVTISCTGTSSDVGGYDYVSWYQQHPGKAPKLILNDVNKRPSGVPDRFSGSKSGNTASLTISGLQPDDEADYYCSSFAGSNTLRVFGGGTKLTVLG
As for B7, the OD in assay [3] was 1.88 OD.
